Measurements taken from patent publication US10660939 (PALATIN TECHNOLOGIES, dated 2020).
Positions of bridges follow the written chain, without caps; N, C: chain ends. Non-standard residues stand in square brackets, D forms with d. 2Nal = N[C@@H](Cc1ccc2ccccc2c1)C(=O)O; Aad = N[C@@H](CCCC(=O)O)C(=O)O; Orn = NCCC[C@H](N)C(=O)O; Dab = NCC[C@H](N)C(=O)O

B1: Peptide No. 159 (peptide)
peptide: RXQFRWX
modifications: N-terminal Ac; Dab 2 (X); D-Phe 4; hGlu 7 (X); cyclo(Dab 2-hGlu 7); C-terminal NH2
notes: also called Ac-Arg-cyclo(Dab-Gln-D-Phe-Arg-Trp-hGlu)-NH2
B2: Peptide No. 160 (peptide)
peptide: Ac-R[Aad]N[dF]RW[Dab]-NH2
modifications: lactam 2-7
notes: also called Ac-Arg-cyclo(hGlu-Asn-D-Phe-Arg-Trp-Dab)-NH2
B3: Peptide No. 28 (peptide)
peptide: RDRFRWK
modifications: N-terminal Ac; D-Phe 4; cyclo(Asp 2-Lys 7); C-terminal NH2
notes: also called Ac-Arg-cyclo(Asp-Arg-D-Phe-Arg-Trp-Lys)-NH2
B4: Peptide No. 73 (peptide)
peptide: RDRFRWK
modifications: N-terminal Ac; D-Phe 4; cyclo(Asp 2-Lys 7); C-terminal OH
notes: also called Ac-Arg-cyclo(Asp-Arg-D-Phe-Arg-Trp-Lys)-OH
B5: Peptide No. 155 (peptide)
peptide: Ac-RKN[dF]RWD-NH2
modifications: lactam 2-7
notes: also called Ac-Arg-cyclo(Lys-Asn-D-Phe-Arg-Trp-Asp)-NH2
B6: Peptide No. 161 (peptide)
peptide: Ac-REN[dF]RW[Orn]-NH2
modifications: lactam 2-7
notes: also called Ac-Arg-cyclo(Glu-Asn-D-Phe-Arg-Trp-Orn)-NH2
B7: Peptide No. 162 (peptide)
peptide: Ac-RKN[dF]R[2Nal]D-NH2
modifications: lactam 2-7
SMILES: CC(=O)N[C@@H](CCCNC(=N)N)C(=O)N[C@H]1CCCCNC(=O)C[C@@H](C(N)=O)NC(=O)[C@H](Cc2ccc3ccccc3c2)NC(=O)[C@H](CCCNC(=N)N)NC(=O)[C@@H](Cc2ccccc2)NC(=O)[C@H](CC(N)=O)NC1=O
notes: also called Ac-Arg-cyclo(Lys-Asn-D-Phe-Arg-Nal2-Asp)-NH2
B8: Peptide No. 165 (peptide)
peptide: Ac-RE[Dab][dF]RW[Orn]-NH2
modifications: lactam 2-7
notes: also called Ac-Arg-cyclo(Glu-Dab-D-Phe-Arg-Trp-Orn)-NH2

Assays:
[1] = target: T1, human melanocortin receptor-4 (human, UniProt P32245 1-332); test: cell-based or functional assay
T1 sequence (P32245 whole entry): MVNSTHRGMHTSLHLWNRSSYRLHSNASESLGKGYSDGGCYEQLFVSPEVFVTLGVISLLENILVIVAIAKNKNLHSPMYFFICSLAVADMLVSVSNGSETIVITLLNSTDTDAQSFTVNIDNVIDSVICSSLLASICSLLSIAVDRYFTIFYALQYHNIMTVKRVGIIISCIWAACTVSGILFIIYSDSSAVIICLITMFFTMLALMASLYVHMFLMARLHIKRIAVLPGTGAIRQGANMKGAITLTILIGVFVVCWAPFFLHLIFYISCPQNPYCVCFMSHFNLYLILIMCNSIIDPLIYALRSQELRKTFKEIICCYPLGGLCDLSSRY

[2] = target: T1, human melanocortin receptor-4; test: cell-based or functional assay; remark: listed apart in the source
[3] = target: human melanocortin receptor-1 (human, UniProt Q01726 1-317); test: cell-based or functional assay
Sequence of human melanocortin receptor-1 (Q01726 whole entry): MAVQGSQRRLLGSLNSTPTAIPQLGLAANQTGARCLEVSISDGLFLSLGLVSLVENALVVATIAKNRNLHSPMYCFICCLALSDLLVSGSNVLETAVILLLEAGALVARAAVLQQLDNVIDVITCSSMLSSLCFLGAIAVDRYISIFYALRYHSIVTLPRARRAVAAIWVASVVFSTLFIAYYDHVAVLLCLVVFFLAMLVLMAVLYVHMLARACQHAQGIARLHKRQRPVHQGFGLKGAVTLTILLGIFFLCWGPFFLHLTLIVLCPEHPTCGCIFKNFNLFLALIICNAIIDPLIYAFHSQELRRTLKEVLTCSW

[4] = target: T1, human melanocortin receptor-4; test: ratio of Ki at hMC1r to Ki at hMC4r
[5] = target: T1, human melanocortin receptor-4; test: competition with Eu-NDP-α-MSH, hMC4r HEK-293 membranes
Experimental: After incubation for 90 minutes at 37° C., the reaction was stopped by filtration over AcroWell 96-well filter plates (Pall Life Sciences). The filter plates were washed 4 times with 200 μL of ice-cold phosphate-buffered saline. DELFIA Enhancement solution (PerkinElmer Life Sciences) was added to each well. The plates were incubated on a shaker for 15 minutes and read at 340 nm excitation and 615 nm emission wavelengths. Each assay was conducted in duplicate and mean values were utilized. Ki values were determined by curve-fitting with Graph-Pad Prism® software using a one-site fixed-slope competition binding model.

[6] = target: T1, human melanocortin receptor-4; test: competition with [I125]-NDP-α-MSH, hMC4r HEK-293 membranes

Binder | hMC4r Emax [2] [%] | hMC1r EC50 [3] [nM] | hMC1r Emax [3] [%] | further results
Ac-R[Aad]H[dF]RW[Dab]-NH2 (lactam 2-7) [Peptide No. 126] | – | – | – | intrinsic activity (cAMP, NDP-α-MSH is 100%) [1]: 101%
B1 | 99 | 26 | 98 | hMC4r EC50 [2]: 0.825 nM; binding selectivity, MC4r against MC1r [4]: 20 fold
B2 | 98 | – | – | hMC4r EC50 [2]: 0.245 nM
Ac-RDV[dF]RWK-NH2 (lactam 2-7) [Peptide No. 16] | – | – | – | intrinsic activity (cAMP, NDP-α-MSH is 100%) [1]: 42%
B3 | – | – | – | Ki [5]: 4 nM
Ac-[dR]DQ[dF]RWK-NH2 (lactam 2-7) [Peptide No. 71] | 89 | – | 88 | –
B4 | – | – | – | Ki [5]: 60 nM
Ac-RDH[dF]RWK-NH2 (lactam 2-7) [Peptide No. 1] | – | – | – | intrinsic activity (cAMP, NDP-α-MSH is 100%) [1]: 91%
Ac-RDQ[dF]RWK-NH2 (lactam 2-7) [Peptide No. 32] | – | – | – | intrinsic activity (cAMP, NDP-α-MSH is 100%) [1]: 98%
Ac-R[Orn]Q[dF]RWE-NH2 (lactam 2-7) [Peptide No. 150] | – | – | 89 | –
Ac-[dR][Orn]Q[dF]RWE-NH2 (lactam 2-7) [Peptide No. 152] | 89 | – | 85 | –
Ac-R[Orn]N[dF]RWE-NH2 (lactam 2-7) [Peptide No. 154] | – | 25 | – | –
Ac-[dR][Orn]N[dF]RWE-NH2 (lactam 2-7) [Peptide No. 156] | – | 80 | 81 | –
B5 | 97 | 14 | 91 | hMC4r EC50 [2]: 0.189 nM; binding selectivity, MC4r against MC1r [4]: 20 fold
B6 | 91 | 13 | 85 | hMC4r EC50 [2]: 0.413 nM; binding selectivity, MC4r against MC1r [4]: 20 fold
Ac-R[Dab]H[dF]RW[Aad]-NH2 (lactam 2-7) [Peptide No. 128] | – | – | – | intrinsic activity (cAMP, NDP-α-MSH is 100%) [1]: 95%
B7 | 82 | 22 | 89 | hMC4r EC50 [2]: 0.85 nM; binding selectivity, MC4r against MC1r [4]: 20 fold
B8 | – | – | – | Ki [6]: 0.65 nM
